25 variants from the supplement of paper PMC7125110 can be followed below.

± gives the standard error. Fewer inactive variants are shown than the library holds. Some results are limits rather than exact numbers.

B1: glmS ribozyme (parent)
chain: AUAAAAGCGCCAGAACUACAGAAAUGUAGUUGACGAGGAGGAGGUUUAUCGAAUUUUCGGCGGAUGCCUCCAAA

Holding throughout (conditions): with glucosamine-6-phosphate
In data set [1] the parent is B1. The data set is described as follows: self-cleavage kobs at 40 uM GlcN6P; higher = faster cleavage; RNA array. The gist of the method: (§1)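 Barcoded ribozyme variants were transcribed in situ on sequenced MiSeq chips by E. coli RNA polymerase. At 37 °C, a hybridised Cy3 probe tracked them while glucosamine-6-phosphate (40 μM to 10 mM) in HEPES/KCl/Mg(OAc)2 buffer flowed in and tiles were imaged over ~14 h. Per-tile medians of signals normalised to baseline and to non-cleaving reference variants were fit to one- or two-exponential decays, giving kobs. kcat and KM came from weighted Michaelis–Menten fits across concentrations.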

Data set [2] covers variants of B1. Kind of data set: self-cleavage kobs at 10000 uM GlcN6P; higher = faster cleavage; RNA array. The gist of the method:
as §1

Data set [3] covers variants of B1. Kind of data set: self-cleavage kobs at 160 uM GlcN6P; higher = faster cleavage; RNA array. The gist of the method: as §1
Data set [4] covers variants of B1. Kind of data set: self-cleavage kobs at 640 uM GlcN6P; higher = faster cleavage; RNA array. A digest of the protocol: as §1
In data set [5] the parent is B1. The data set is described as follows: self-cleavage kobs at 2500 uM GlcN6P; higher = faster cleavage; RNA array. A digest of the protocol: as §1

Regarding A14U G43A U55A C61A, the “self-cleavage kobs at 40 uM GlcN6P” value in data set [1] was < 1e-05 s⁻¹. Besides, the “self-cleavage kobs at 10000 uM GlcN6P” value in data set [2] was < 1e-05 s⁻¹.
Regarding A12U G37C A42U A48C, in data set [1], the “self-cleavage kobs at 40 uM GlcN6P” value was < 1e-05 s⁻¹.
For G7A A36C U54G, in data set [1], the “self-cleavage kobs at 40 uM GlcN6P” value is < 1e-05 s⁻¹. For the same variant, the “self-cleavage kobs at 10000 uM GlcN6P” value in data set [2] is < 1e-05 s⁻¹.
Take A42U G59C: the “self-cleavage kobs at 40 uM GlcN6P” value in data set [1] is < 1e-05 s⁻¹. Moreover, in data set [3], the “self-cleavage kobs at 160 uM GlcN6P” value is < 1e-05 s⁻¹. In addition, the “self-cleavage kobs at 640 uM GlcN6P” value in data set [4] is < 1e-05 s⁻¹. In addition, the “self-cleavage kobs at 2500 uM GlcN6P” value in data set [5] was < 1e-05 s⁻¹. Also, the “self-cleavage kobs at 10000 uM GlcN6P” value in data set [2] was < 1e-05 s⁻¹.
For C11A A33U U54A, in data set [1], the “self-cleavage kobs at 40 uM GlcN6P” value is < 1e-05 s⁻¹.
Regarding U46A A48C C70G C71U, in data set [1], the “self-cleavage kobs at 40 uM GlcN6P” value is < 1e-05 s⁻¹. Further, in data set [2], the “self-cleavage kobs at 10000 uM GlcN6P” value was < 1e-05 s⁻¹.
As for A52U G60U C67U, the “self-cleavage kobs at 40 uM GlcN6P” value in data set [1] is < 1e-05 s⁻¹. Besides, the “self-cleavage kobs at 10000 uM GlcN6P” value in data set [2] was < 1e-05 s⁻¹.
As to G43A G51C G63A C68U, in data set [1], the “self-cleavage kobs at 40 uM GlcN6P” value is < 1e-05 s⁻¹.
On to C8A C10A, for which, in data set [1], the “self-cleavage kobs at 40 uM GlcN6P” value is < 1e-05 s⁻¹. Besides, in data set [3], the “self-cleavage kobs at 160 uM GlcN6P” value was < 1e-05 s⁻¹. Moreover, the “self-cleavage kobs at 640 uM GlcN6P” value in data set [4] is < 1e-05 s⁻¹.
On to G7A C58G, for which the “self-cleavage kobs at 40 uM GlcN6P” value in data set [1] was < 1e-05 s⁻¹. The “self-cleavage kobs at 160 uM GlcN6P” value in data set [3] was < 1e-05 s⁻¹. Further, the “self-cleavage kobs at 640 uM GlcN6P” value in data set [4] is < 1e-05 s⁻¹.
Take C16G U31A: the “self-cleavage kobs at 40 uM GlcN6P” value in data set [1] was 5.78e-05 ± 2.1e-05 s⁻¹. Also, the “self-cleavage kobs at 160 uM GlcN6P” value in data set [3] worked out at 4.17e-05 ± 1.9e-05 s⁻¹. In data set [4], the “self-cleavage kobs at 640 uM GlcN6P” value worked out at 0.000204 ± 8.2e-05 s⁻¹. The “self-cleavage kobs at 2500 uM GlcN6P” value in data set [5] worked out at 0.00117 ± 0.00048 s⁻¹. For the same variant, the “self-cleavage kobs at 10000 uM GlcN6P” value in data set [2] is 0.00174 ± 0.0006 s⁻¹.
Consider G7A G32U A39G C58A, for which the “self-cleavage kobs at 40 uM GlcN6P” value in data set [1] is < 1e-05 s⁻¹. For the same variant, the “self-cleavage kobs at 10000 uM GlcN6P” value in data set [2] is < 1e-05 s⁻¹.
Regarding G32C G41C, the “self-cleavage kobs at 40 uM GlcN6P” value in data set [1] was < 1e-05 s⁻¹. In addition, in data set [3], the “self-cleavage kobs at 160 uM GlcN6P” value was < 1e-05 s⁻¹. Also, in data set [4], the “self-cleavage kobs at 640 uM GlcN6P” value was < 1e-05 s⁻¹. For the same variant, the “self-cleavage kobs at 2500 uM GlcN6P” value in data set [5] is < 1e-05 s⁻¹. In data set [2], the “self-cleavage kobs at 10000 uM GlcN6P” value was < 1e-05 s⁻¹.
Take A36U C50G: the “self-cleavage kobs at 40 uM GlcN6P” value in data set [1] was 6.51e-05 ± 1.4e-05 s⁻¹. The “self-cleavage kobs at 160 uM GlcN6P” value in data set [3] was determined as 8.01e-05 ± 1.4e-05 s⁻¹. Further, the “self-cleavage kobs at 640 uM GlcN6P” value in data set [4] turned out to be 2.94e-05 ± 1.3e-05 s⁻¹. In addition, the “self-cleavage kobs at 2500 uM GlcN6P” value in data set [5] came out at 0.000455 ± 0.00018 s⁻¹.
Take A6C G32C C58G: in data set [1], the “self-cleavage kobs at 40 uM GlcN6P” value was < 1e-05 s⁻¹. The “self-cleavage kobs at 640 uM GlcN6P” value in data set [4] was < 1e-05 s⁻¹. In addition, the “self-cleavage kobs at 2500 uM GlcN6P” value in data set [5] was < 1e-05 s⁻¹.
As to A15U A64C, the “self-cleavage kobs at 40 uM GlcN6P” value in data set [1] was < 1e-05 s⁻¹. Also, the “self-cleavage kobs at 160 uM GlcN6P” value in data set [3] was < 1e-05 s⁻¹.
In the case of A15G G44U C68G, in data set [1], the “self-cleavage kobs at 40 uM GlcN6P” value was < 1e-05 s⁻¹.
Same read-out and setting: the result for A36U U69G C71U reads 0.000104 ± 4.8e-05 s⁻¹.
Take A42C A48C: in data set [1], the “self-cleavage kobs at 40 uM GlcN6P” value was < 1e-05 s⁻¹. In addition, the “self-cleavage kobs at 640 uM GlcN6P” value in data set [4] is < 1e-05 s⁻¹. Also, the “self-cleavage kobs at 2500 uM GlcN6P” value in data set [5] is < 1e-05 s⁻¹. Besides, the “self-cleavage kobs at 10000 uM GlcN6P” value in data set [2] is < 1e-05 s⁻¹.
Regarding G7U G40C G43C, the “self-cleavage kobs at 40 uM GlcN6P” value in data set [1] was < 1e-05 s⁻¹. In addition, the “self-cleavage kobs at 10000 uM GlcN6P” value in data set [2] was < 1e-05 s⁻¹.
For G7A C50G C71U, the “self-cleavage kobs at 40 uM GlcN6P” value in data set [1] was 0.000141 ± 3.5e-05 s⁻¹. In addition, the “self-cleavage kobs at 160 uM GlcN6P” value in data set [3] came to 0.000482 ± 9.3e-05 s⁻¹. Further, in data set [4], the “self-cleavage kobs at 640 uM GlcN6P” value turned out to be 0.000136 ± 3.9e-05 s⁻¹. Besides, in data set [5], the “self-cleavage kobs at 2500 uM GlcN6P” value was determined as 0.000177 ± 3.7e-05 s⁻¹. For the same variant, in data set [2], the “self-cleavage kobs at 10000 uM GlcN6P” value stood at 9.72e-05 ± 2.2e-05 s⁻¹.
Regarding A12U C16A G51C, the “self-cleavage kobs at 40 uM GlcN6P” value in data set [1] is < 1e-05 s⁻¹.
C11U U31A G38U U49A U54G: the “self-cleavage kobs at 40 uM GlcN6P” value in data set [1] was < 1e-05 s⁻¹.
For U55A G63U, the “self-cleavage kobs at 40 uM GlcN6P” value in data set [1] is < 1e-05 s⁻¹. Further, the “self-cleavage kobs at 640 uM GlcN6P” value in data set [4] is < 1e-05 s⁻¹. In addition, in data set [2], the “self-cleavage kobs at 10000 uM GlcN6P” value was < 1e-05 s⁻¹.
With G38A C50G C68U, the “self-cleavage kobs at 40 uM GlcN6P” value in data set [1] was 7.89e-05 ± 2.3e-05 s⁻¹. The “self-cleavage kobs at 640 uM GlcN6P” value in data set [4] was found to be 8.33e-05 ± 3.1e-05 s⁻¹. Moreover, the “self-cleavage kobs at 2500 uM GlcN6P” value in data set [5] came out at 0.000109 ± 2.4e-05 s⁻¹. In addition, the “self-cleavage kobs at 10000 uM GlcN6P” value in data set [2] was 4.82e-05 ± 1.5e-05 s⁻¹.
